For 2 substances, Ki results are on record in patent publication US20230375528.

Series [1] deals with ENO1down (ENO1-K343A) (Homo sapiens) (UniProt P06733). The series is described as follows: EMSA. Particulars: competition EMSA.
The target in series [2] is ENO1 wild type (Enolase 1) (Homo sapiens) (UniProt P06733). The series is described as follows: EMSA.
ENO1 wild type (Enolase 1) (Homo sapiens), sequence (P06733 2-434): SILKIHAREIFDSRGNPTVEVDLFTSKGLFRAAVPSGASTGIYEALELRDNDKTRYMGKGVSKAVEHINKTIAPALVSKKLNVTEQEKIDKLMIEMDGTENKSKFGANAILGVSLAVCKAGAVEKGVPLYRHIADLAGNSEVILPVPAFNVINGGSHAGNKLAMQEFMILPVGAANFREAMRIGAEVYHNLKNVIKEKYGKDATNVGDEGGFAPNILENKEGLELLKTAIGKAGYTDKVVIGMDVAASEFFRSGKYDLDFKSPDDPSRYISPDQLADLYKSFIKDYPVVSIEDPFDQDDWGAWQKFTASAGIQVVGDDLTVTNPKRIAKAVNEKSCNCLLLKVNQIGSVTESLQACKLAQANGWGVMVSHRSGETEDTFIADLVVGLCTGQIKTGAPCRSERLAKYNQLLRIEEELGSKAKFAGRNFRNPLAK

ENO1down (ENO1-K343A) (Homo sapiens), sequence (P06733 whole entry K343A): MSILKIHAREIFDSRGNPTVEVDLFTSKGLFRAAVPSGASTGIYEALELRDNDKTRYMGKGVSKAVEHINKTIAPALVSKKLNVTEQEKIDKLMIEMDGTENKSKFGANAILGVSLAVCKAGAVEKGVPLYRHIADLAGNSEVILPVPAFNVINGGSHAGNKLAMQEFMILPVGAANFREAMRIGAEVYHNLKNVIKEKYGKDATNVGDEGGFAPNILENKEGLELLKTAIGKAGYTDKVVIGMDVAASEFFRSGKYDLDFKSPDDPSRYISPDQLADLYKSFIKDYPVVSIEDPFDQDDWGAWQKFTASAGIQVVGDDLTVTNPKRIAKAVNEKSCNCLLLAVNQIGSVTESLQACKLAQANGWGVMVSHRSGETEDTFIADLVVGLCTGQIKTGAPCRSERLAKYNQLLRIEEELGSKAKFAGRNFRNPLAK

Regarding PABPC1 5'UTR target 35-mer RNA, the values for the Ki in series [1] (about 5-10-fold decreased RNA binding vs wt) and in series [2] (competition EMSA with labelled PABPC1 target 35-mer probe) were 0.224 µM and 0.027 µM, respectively.
As to “PABPC1 control 35-mer RNA (GC-matched, downstream of binding site)”, the values for the Ki in series [1] and in series [2] (competition EMSA with labelled PABPC1 target probe) were 3.26 µM and 2.59 µM, respectively.
